Assay results published in PMC10786891, “Massively parallel profiling of RNA-targeting CRISPR-Cas13d”.
Numbering of substitutions follows the chain as printed. Names may count otherwise.

T1: EsCas13d, nuclease-dead (Eubacterium siraeum, UniProt B0MS50, R295A;H300A;R849A;H854A)
T1 sequence: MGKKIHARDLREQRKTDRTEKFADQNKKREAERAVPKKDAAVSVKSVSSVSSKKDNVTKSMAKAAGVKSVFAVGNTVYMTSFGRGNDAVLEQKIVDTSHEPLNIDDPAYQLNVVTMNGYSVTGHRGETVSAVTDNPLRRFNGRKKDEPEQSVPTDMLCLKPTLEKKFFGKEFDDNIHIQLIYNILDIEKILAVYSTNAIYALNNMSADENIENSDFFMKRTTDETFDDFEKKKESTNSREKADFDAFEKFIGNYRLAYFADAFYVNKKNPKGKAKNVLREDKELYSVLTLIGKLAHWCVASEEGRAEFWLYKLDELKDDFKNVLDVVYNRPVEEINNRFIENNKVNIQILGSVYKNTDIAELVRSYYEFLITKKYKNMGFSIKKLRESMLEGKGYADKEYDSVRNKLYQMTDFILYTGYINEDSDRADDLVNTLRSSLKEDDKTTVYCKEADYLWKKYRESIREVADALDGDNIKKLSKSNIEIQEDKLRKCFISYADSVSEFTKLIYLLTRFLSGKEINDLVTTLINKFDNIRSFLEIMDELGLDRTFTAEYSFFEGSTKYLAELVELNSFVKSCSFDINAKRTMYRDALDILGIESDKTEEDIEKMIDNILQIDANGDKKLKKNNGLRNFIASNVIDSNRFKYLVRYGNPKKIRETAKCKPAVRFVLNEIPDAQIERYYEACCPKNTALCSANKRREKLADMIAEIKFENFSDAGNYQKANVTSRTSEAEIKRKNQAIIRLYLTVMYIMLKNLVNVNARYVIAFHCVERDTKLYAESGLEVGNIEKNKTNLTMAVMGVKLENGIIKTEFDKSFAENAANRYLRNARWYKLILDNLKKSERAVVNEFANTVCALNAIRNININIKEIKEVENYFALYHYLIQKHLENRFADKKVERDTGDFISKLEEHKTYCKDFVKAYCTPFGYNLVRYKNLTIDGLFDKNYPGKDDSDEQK

B1: target 2 MT 5'PFS AGC 3'PFS AAA (mixed)
RNA 1: CACCCGUGCAAAAUUGCAGGGGUCUAAAACCUUCUCCAAAUUGUUUCAUCCU
RNA 2: GGGAAUGGAUCCACAUCUACGAAUUCAGCAGGAUGAAACAAUUUGGAGAAGAAAAGAUCGGAAGAGCACACGU
B2: target 2 MT 5'PFS AGC 3'PFS CGC (mixed)
RNA 1: B1 RNA 1
RNA 2: B1 RNA 2 with A52C, A53G, A54C
B3: target 2 MT 5'PFS UAU 3'PFS UGA (mixed)
RNA 1: B1 RNA 1
RNA 2: B1 RNA 2 with A27U, G28A, C29U, A52U, A53G
B4: target 2 MT 5'PFS UAU 3'PFS UGC (mixed)
RNA 1: B1 RNA 1
RNA 2: B1 RNA 2 with A27U, G28A, C29U, A52U, A53G, A54C
B5: target 2 MT 5'PFS UGU 3'PFS CAC (mixed)
RNA 1: B1 RNA 1
RNA 2: B1 RNA 2 with A27U, C29U, A52C, A54C
B6: target 2 MT 5'PFS UCU 3'PFS UGA (mixed)
RNA 1: B1 RNA 1
RNA 2: B1 RNA 2 with A27U, G28C, C29U, A52U, A53G
B7: target 2 MT 5'PFS UAU 3'PFS UGU (mixed)
RNA 1: B1 RNA 1
RNA 2: B1 RNA 2 with A27U, G28A, C29U, A52U, A53G, A54U
B8: target 2 MT 5'PFS AGC 3'PFS CGA (mixed)
RNA 1: B1 RNA 1
RNA 2: B1 RNA 2 with A52C, A53G
B9: target 2 MT 5'PFS AGC 3'PFS AAG (mixed)
RNA 1: B1 RNA 1
RNA 2: B1 RNA 2 with A54G
B10: target 2 MT 5'PFS GAG 3'PFS CGU (mixed)
RNA 1: B1 RNA 1
RNA 2: B1 RNA 2 with A27G, G28A, C29G, A52C, A53G, A54U
B11: target 2 MT 5'PFS CAU 3'PFS AGA (mixed)
RNA 1: B1 RNA 1
RNA 2: B1 RNA 2 with A27C, G28A, C29U, A53G
B12: target 2 MT 5'PFS AGA 3'PFS AAC (mixed)
RNA 1: B1 RNA 1
RNA 2: B1 RNA 2 with C29A, A54C
B13: target 2 MT 5'PFS GUC 3'PFS CAU (mixed)
RNA 1: B1 RNA 1
RNA 2: B1 RNA 2 with A27G, G28U, A52C, A54U
B14: target 2 MT 5'PFS AGA 3'PFS AAA (mixed)
RNA 1: B1 RNA 1
RNA 2: B1 RNA 2 with C29A
B15: target 2 MT 5'PFS UGU 3'PFS CAG (mixed)
RNA 1: B1 RNA 1
RNA 2: B1 RNA 2 with A27U, C29U, A52C, A54G
B16: target 2 MT 5'PFS CGA 3'PFS CUU (mixed)
RNA 1: B1 RNA 1
RNA 2: B1 RNA 2 with A27C, C29A, A52C, A53U, A54U
B17: target 2 MT 5'PFS GUA 3'PFS CAG (mixed)
RNA 1: B1 RNA 1
RNA 2: B1 RNA 2 with A27G, G28U, C29A, A52C, A54G
B18: target 2 MT 5'PFS GUU 3'PFS AAA (mixed)
RNA 1: B1 RNA 1
RNA 2: B1 RNA 2 with A27G, G28U, C29U
B19: target 2 MT 5'PFS CUU 3'PFS ACG (mixed)
RNA 1: B1 RNA 1
RNA 2: B1 RNA 2 with A27C, G28U, C29U, A53C, A54G
B20: target 2 MT 5'PFS GAG 3'PFS AGC (mixed)
RNA 1: B1 RNA 1
RNA 2: B1 RNA 2 with A27G, G28A, C29G, A53G, A54C
B21: target 2 MT 5'PFS UCU 3'PFS UGC (mixed)
RNA 1: B1 RNA 1
RNA 2: B1 RNA 2 with A27U, G28C, C29U, A52U, A53G, A54C
B22: target 2 MT 5'PFS CUU 3'PFS ACC (mixed)
RNA 1: B1 RNA 1
RNA 2: B1 RNA 2 with A27C, G28U, C29U, A53C, A54C
B23: target 2 MT 5'PFS GAG 3'PFS AGA (mixed)
RNA 1: B1 RNA 1
RNA 2: B1 RNA 2 with A27G, G28A, C29G, A53G
B24: target 2 MT 5'PFS CGA 3'PFS UUA (mixed)
RNA 1: B1 RNA 1
RNA 2: B1 RNA 2 with A27C, C29A, A52U, A53U
B25: target 2 MT 5'PFS CUU 3'PFS ACA (mixed)
RNA 1: B1 RNA 1
RNA 2: B1 RNA 2 with A27C, G28U, C29U, A53C
B26: target 2 MT 5'PFS AGA 3'PFS AAG (mixed)
RNA 1: B1 RNA 1
RNA 2: B1 RNA 2 with C29A, A54G
B27: target 2 MT 5'PFS CAU 3'PFS AGC (mixed)
RNA 1: B1 RNA 1
RNA 2: B1 RNA 2 with A27C, G28A, C29U, A53G, A54C
B28: target 2 MT 5'PFS GUU 3'PFS AAG (mixed)
RNA 1: B1 RNA 1
RNA 2: B1 RNA 2 with A27G, G28U, C29U, A54G
B29: target 2 MT 5'PFS CUU 3'PFS ACU (mixed)
RNA 1: B1 RNA 1
RNA 2: B1 RNA 2 with A27C, G28U, C29U, A53C, A54U
B30: target 2 MT 5'PFS GUU 3'PFS AAC (mixed)
RNA 1: B1 RNA 1
RNA 2: B1 RNA 2 with A27G, G28U, C29U, A54C
B31: target 2 MT 5'PFS ACC 3'PFS UCC (mixed)
RNA 1: B1 RNA 1
RNA 2: B1 RNA 2 with G28C, A52U, A53C, A54C
B32: target 2 MT 5'PFS UUG 3'PFS CGC (mixed)
RNA 1: B1 RNA 1
RNA 2: B1 RNA 2 with A27U, G28U, C29G, A52C, A53G, A54C
B33: target 2 MT 5'PFS UUG 3'PFS CGA (mixed)
RNA 1: B1 RNA 1
RNA 2: B1 RNA 2 with A27U, G28U, C29G, A52C, A53G
B34: target 2 MT 5'PFS AGC 3'PFS CGG (mixed)
RNA 1: B1 RNA 1
RNA 2: B1 RNA 2 with A52C, A53G, A54G
B35: target 2 MT 5'PFS AGC 3'PFS UGC (mixed)
RNA 1: B1 RNA 1
RNA 2: B1 RNA 2 with A52U, A53G, A54C
B36: target 1 insU 3' of 22,insA 3' of 4 (mixed)
RNA 1: CACCCGUGCAAAAAUGCAGGGGUCUAAAACUGAGCGGAUAACCUCUCUAUGG
RNA 2: GGGAAUGGAUCCACAUCUACGAAUUCGUACUCAUAGAGAGGUUAUCCGCAUCACCGAGAUCGGAAGAGCACACGU
B37: target 1 G5A,A20C (mixed)
RNA 1: B36 RNA 1
RNA 2: GGGAAUGGAUCCACAUCUACGAAUUCGUACCCUAGAGAGGUUAUCCACUCACCGAGAUCGGAAGAGCACACGU
B38: target 1 A9C,A16C (mixed)
RNA 1: B36 RNA 1
RNA 2: B37 RNA 2 with C32A, A36C, A43C, A47G

Each binder was assayed against T1, EsCas13d, nuclease-dead (assay: crRNA (strand 1, pre-loaded); Mg2+; 40 mM Tris-HCl pH 7.5, 150 mM NaCl, 6 mM MgCl2, 1 mM DTT, 0.1% Tween-20, 0.2 mg/ml BSA; 25 C; 10 min per concentration, then washed). Conditions: tags: His6-TwinStrep-SUMO cleaved; N-terminal SNAP kept (SNAP-Surface 488); label: 3' end held by stalled T7 RNA polymerase.
With B1 the Kd was 13 ± 4 nM.
In the case of B2, the Kd is reported as 7.5 ± 0.7 nM.
B3 was tested, and the Kd was 37 ± 9 nM.
With B4 the Kd was 30 ± 6 nM.
Work on B5 yielded a Kd of 16 ± 2.5 nM.
With B6 the Kd was 14.5 ± 3.5 nM.
In the case of B7, the Kd is reported as 29.1 ± 3.4 nM.
Binder B8 has a Kd of 15 ± 5 nM.
B9 gave a Kd of 9.2 ± 2 nM.
B10 showed a Kd of 9.4 ± 0.9 nM.
With B11 the Kd was 2.8 ± 0.6 nM.
B12 was tested, and the Kd was 5.8 ± 1 nM.
Binder B13 has a Kd of 10.3 ± 1.4 nM.
B14 gave a Kd of 4.5 ± 1.2 nM.
B15 showed a Kd of 9 ± 0.9 nM.
Work on B16 yielded a Kd of 8.3 ± 1.1 nM.
B17 gave a Kd of 9.6 ± 1.1 nM.
Work on B18 yielded a Kd of 14 ± 7 nM.
In the case of B19, the Kd is reported as 4.4 ± 0.5 nM.
With B20 the Kd was 5.7 ± 0.7 nM.
B21 was tested, and the Kd was 11.7 ± 2.1 nM.
Binder B22 has a Kd of 10.5 ± 2.2 nM.
B23 was tested, and the Kd was 4.9 ± 0.5 nM.
In the case of B24, the Kd is reported as 9 ± 1.7 nM.
In the case of B25, the Kd is reported as 4.9 ± 0.6 nM.
With B26 the Kd was 7.1 ± 1.3 nM.
For B27, the Kd was 3 ± 0.4 nM.
B28 gave a Kd of 9.3 ± 0.8 nM.
B29 gave a Kd of 6.3 ± 0.9 nM.
With B30 the Kd was 11.9 ± 1.3 nM.
In the case of B31, the Kd is reported as 5.5 ± 0.6 nM.
B32 gave a Kd of 15.9 ± 1.5 nM.
Work on B33 yielded a Kd of 11.4 ± 1 nM.
B34 showed a Kd of 5.8 ± 1 nM.
B35 showed a Kd of 8.2 ± 1.4 nM.
Binder B36 has a Kd of 23 ± 1.9 nM.
For B37, the Kd was 88 ± 13 nM.
For B38, the Kd was 86 ± 16 nM.
